{
  "source": "patent US7598225",
  "target": "human HLA A2 molecules (human)",
  "test": "T2 cell binding assay, peptide at 50 ug/ml, surface HLA A2 stained with MAb A2,69, flow cytometry (no peptide: 127.25)",
  "settings": "remark: other sources report otherwise",
  "data": [
    {"binder": "VISNDVCAQV", "note": "[PSA peptide 154-163]", "values": [
      {"measurement": "mean channel fluorescent intensity", "value": 182}
    ]}
  ]
}
